Data set [1] has as its target human lactate dehydrogenase A chain (hLDHA) (human, UniProt P00338 2-332). Nature of the data set: colorimetric AuNP/CTAB aggregation assay (A650/A520); 1 uM protein, 4 nM CTAB; 20 mM HEPES pH 7.4, room temperature, 20 nM aptamer with protein 20 min, then 4 nM CTAB 20 min, then AuNPs 5 min (200 uL final).
The target in another data set is fibrinogen (human, UniProt P02671-2;P02675;P02679-2 20-644;31-491;27-437). The description is as above. Particulars: protein: commercial; chain copies: 2;2;2.
Data set [2] deals with Plasmodium vivax lactate dehydrogenase (PvLDH) (Plasmodium vivax, UniProt Q4PRK9 1-316). Nature of the data set: colorimetric AuNP/CTAB aggregation assay (A650/A520). Conditions: protein: recombinant; chain copies: 4.
Data set [3] has as its target Plasmodium falciparum lactate dehydrogenase (PfLDH) (Plasmodium falciparum, UniProt Q76NM3 1-316). Nature of the data set: colorimetric AuNP/CTAB aggregation assay (A650/A520); 4 nM CTAB, 20 nM aptamer; LOD 2.94 pM (not a Kd); 20 mM HEPES pH 7.4, room temperature, 20 nM aptamer with protein 20 min, then 4 nM CTAB 20 min, then AuNPs 5 min (200 uL final). Conditions: protein: recombinant; chain copies: 4.

Chain of fibrinogen (P02671 other isoform, or with tags, fused parts or gaps, chain 1 of 3): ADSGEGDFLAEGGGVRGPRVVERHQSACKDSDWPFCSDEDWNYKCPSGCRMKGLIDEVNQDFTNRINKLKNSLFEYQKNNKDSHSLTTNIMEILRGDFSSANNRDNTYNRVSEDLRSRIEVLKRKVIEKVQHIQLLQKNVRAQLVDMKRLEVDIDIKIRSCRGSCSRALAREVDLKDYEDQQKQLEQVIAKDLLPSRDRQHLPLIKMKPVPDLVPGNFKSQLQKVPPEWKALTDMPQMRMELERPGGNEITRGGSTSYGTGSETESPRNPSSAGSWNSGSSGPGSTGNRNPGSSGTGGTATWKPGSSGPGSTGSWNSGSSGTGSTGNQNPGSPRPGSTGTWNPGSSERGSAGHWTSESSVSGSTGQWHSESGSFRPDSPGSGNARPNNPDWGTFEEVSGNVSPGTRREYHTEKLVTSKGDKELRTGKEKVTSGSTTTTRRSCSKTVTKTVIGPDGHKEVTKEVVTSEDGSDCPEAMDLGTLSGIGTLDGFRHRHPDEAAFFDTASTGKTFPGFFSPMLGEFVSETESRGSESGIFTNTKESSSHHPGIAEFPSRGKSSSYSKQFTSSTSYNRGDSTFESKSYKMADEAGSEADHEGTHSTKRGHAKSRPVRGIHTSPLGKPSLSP
Chain of fibrinogen (P02675 31-491, chain 2 of 3): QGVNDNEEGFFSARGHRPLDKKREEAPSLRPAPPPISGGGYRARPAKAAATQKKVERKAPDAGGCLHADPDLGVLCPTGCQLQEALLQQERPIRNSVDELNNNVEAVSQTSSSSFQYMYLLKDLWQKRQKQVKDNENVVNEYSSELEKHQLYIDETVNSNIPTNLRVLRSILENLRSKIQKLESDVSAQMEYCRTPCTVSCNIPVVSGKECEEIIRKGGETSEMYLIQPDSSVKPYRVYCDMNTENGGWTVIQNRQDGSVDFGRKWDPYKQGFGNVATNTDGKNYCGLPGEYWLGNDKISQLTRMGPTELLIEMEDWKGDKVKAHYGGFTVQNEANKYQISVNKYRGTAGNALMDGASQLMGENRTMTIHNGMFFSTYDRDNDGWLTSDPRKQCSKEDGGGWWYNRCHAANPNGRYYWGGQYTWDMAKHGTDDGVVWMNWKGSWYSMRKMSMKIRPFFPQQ
Chain of fibrinogen (P02679 other isoform, or with tags, fused parts or gaps, chain 3 of 3): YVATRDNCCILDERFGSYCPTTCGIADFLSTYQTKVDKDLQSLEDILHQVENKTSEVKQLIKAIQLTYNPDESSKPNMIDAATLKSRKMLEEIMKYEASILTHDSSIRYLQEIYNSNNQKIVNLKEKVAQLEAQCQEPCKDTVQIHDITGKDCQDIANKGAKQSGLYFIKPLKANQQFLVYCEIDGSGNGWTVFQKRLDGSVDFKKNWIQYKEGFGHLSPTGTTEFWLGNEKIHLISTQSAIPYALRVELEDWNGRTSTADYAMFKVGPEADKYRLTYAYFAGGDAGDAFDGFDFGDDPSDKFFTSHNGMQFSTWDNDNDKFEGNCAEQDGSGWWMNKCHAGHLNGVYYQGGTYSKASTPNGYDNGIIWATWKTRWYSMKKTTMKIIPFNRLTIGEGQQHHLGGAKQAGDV

With GTTCGATTGGATTGTGCCGGAAGTGCTGGCTCGAAC (ssDNA) [pL1 aptamer], the binding result in data set [1] is “no binding”; with fibrinogen, “no binding”; in data set [2], “binds”; in data set [3], “binds”.

For the origin of these results see article PMC4081113, “Cationic Surfactant-Based Colorimetric Detection of Plasmodium Lactate Dehydrogenase, a Biomarker for Malaria, Using the Specific DNA Aptamer”.
